Assay results reported in the supplement of paper PMC9233669.
Variants at the floor of the assay were thinned out.

Legend:
[1] = tested on: biotinyl-Leu-oxazolone; experiment: self-aminoacylation, catalytic enhancement (BLO) (fold over background); higher = more active; k-Seq, kA / k0A0; sequences stand for … in GGGAAUGGAUCCACAUCUACGAAUUC…UUCACUGCAGACUUGACGAAGCUG
Procedure, shortened: (§1)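 Mutagenized RNA pools (0.43 μM; 21-nt variable region) were treated with 2–1250 μM of each biotinyl-aminoacyl-oxazolone. Conditions were 50 μL HEPES/NaCl/KCl/MgCl2/CaCl2 buffer, 5% acetonitrile, pH 6.9–7.0, room temperature, 90 minutes. Catalytic enhancement, the median kA relative to the uncatalyzed rate, was derived from streptavidin capture, qPCR and Illumina sequencing.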

[2] = tested on: biotinyl-Ile-oxazolone; experiment: self-aminoacylation, catalytic enhancement (BIO) (fold over background); higher = more active; k-Seq, kA / k0A0; sequences stand for … in GGGAAUGGAUCCACAUCUACGAAUUC…UUCACUGCAGACUUGACGAAGCUG
Procedure, shortened: as §1

[3] = tested on: biotinyl-Val-oxazolone; experiment: self-aminoacylation, catalytic enhancement (BVO) (fold over background); higher = more active; k-Seq, kA / k0A0; sequences stand for … in GGGAAUGGAUCCACAUCUACGAAUUC…UUCACUGCAGACUUGACGAAGCUG
Procedure, shortened: as §1

[4] = tested on: biotinyl-Trp-oxazolone; experiment: self-aminoacylation, catalytic enhancement (BWO) (fold over background); higher = more active; k-Seq, kA / k0A0; sequences stand for … in GGGAAUGGAUCCACAUCUACGAAUUC…UUCACUGCAGACUUGACGAAGCUG
Procedure, shortened: as §1

[5] = tested on: biotinyl-Met-oxazolone; experiment: self-aminoacylation, catalytic enhancement (BMO) (fold over background); higher = more active; k-Seq, kA / k0A0; sequences stand for … in GGGAAUGGAUCCACAUCUACGAAUUC…UUCACUGCAGACUUGACGAAGCUG
Procedure, shortened: as §1

[6] = tested on: biotinyl-Phe-oxazolone; experiment: self-aminoacylation, catalytic enhancement (BFO) (fold over background); higher = more active; k-Seq, kA / k0A0; sequences stand for … in GGGAAUGGAUCCACAUCUACGAAUUC…UUCACUGCAGACUUGACGAAGCUG
Procedure, shortened: as §1

Sequence	self-aminoacylation [1]	self-aminoacylation [2]	self-aminoacylation [3]	self-aminoacylation [4]	self-aminoacylation [5]	self-aminoacylation [6]
AUACACUUAGGUCAUCGGGUG [Fam2.2 aminoacylation ribozyme variant]	6.18	3.82	3.3	5.82	5.5	36.6
AUACAUCUAGGUCAUCGGGUG [Fam2.2 aminoacylation ribozyme variant]	4.8	3.19	2.85	5.51	4.39	24.4
AUACUCCAAACAAUCGGUCUG [Fam1A.1 aminoacylation ribozyme variant]	0.534	0.827	0.743	1.61	0.759	1.98
AUACUUCAAACAAUCGGACUG [Fam1A.1 aminoacylation ribozyme variant]	0.522	0.748	0.666	2.34	0.548	3.32
AUACUUCAAACAAUCGGUUUG [Fam1A.1 aminoacylation ribozyme variant]	1.14	1.05	1.06	9.98	0.91	12.9
AUACUUCAAACAAUGGGUCUG [Fam1A.1 aminoacylation ribozyme variant]	0.847	0.935	0.921	0.934	0.862	0.774
AUACUUCAAACACUCGGUCUG [Fam1A.1 aminoacylation ribozyme variant]	0.917	1.06	0.821	0.981	0.83	1.31
AUACUUCAAACAUUCGGUCUG [Fam1A.1 aminoacylation ribozyme variant]	1.09	1.18	1.1	1.11	1.09	1.19
AUACUUCACACAAUCGGUCUG [Fam1A.1 aminoacylation ribozyme variant]	0.683	0.901	0.861	0.814	0.927	1.15
AUAGCCCUGGUCAUCGAGUGA [Fam2.1 aminoacylation ribozyme variant]	20.3	8.62	7.53	21.6	19.9	78.5
AUCAACCUAGGUCAUCGGGUG [Fam2.2 aminoacylation ribozyme variant]	10.2	4.88	5.02	7.85	7.11	36.3
AUCACCAUGGUCAUCGAGUGA [Fam2.1 aminoacylation ribozyme variant]	11.7	5.49	5.56	13.2	10.3	58.9
AUCACCCGGGUCAUCGAGUGA [Fam2.1 aminoacylation ribozyme variant]	7.28	3.65	4.32	8.12	7.5	51.8
AUCACCCUGGACAUCGAGUGA [Fam2.1 aminoacylation ribozyme variant]	10.4	3.98	4.56	8.8	9.05	68.7
AUCACCCUGGUAAUCGAGUGA [Fam2.1 aminoacylation ribozyme variant]	11.3	4.92	4.82	13.6	11.2	95.4
AUCACCCUGGUCAUGGAGUGA [Fam2.1 aminoacylation ribozyme variant]	6.86	3.54	3.58	6.96	6.29	34
AUCACCCUGGUCAUUGAGUGA [Fam2.1 aminoacylation ribozyme variant]	13	5.63	5.8	12.9	11.3	75.1
AUCACCCUGGUUAUCGAGUGA [Fam2.1 aminoacylation ribozyme variant]	13.5	4.98	5.37	12.2	12	86.5
AUCAGCCUGGUCAUCGAGUGA [Fam2.1 aminoacylation ribozyme variant]	4.62	3.99	3.49	6.36	4.28	32.5
AUCCACCUACGUCAUCGGGUG [Fam2.2 aminoacylation ribozyme variant]	6.58	4.29	3.75	4.86	6.46	41.3
AUCCACCUAGGUCAUCGCGUG [Fam2.2 aminoacylation ribozyme variant]	13.9	7.45	7.73	8.63	8.4	88.1
AUCCACCUAGGUCAUCGGGUG [Fam2.2 aminoacylation ribozyme variant]	42	18.4	17	25	32.1	240
AUCCACCUAGGUCGUCGGGUG [Fam2.2 aminoacylation ribozyme variant]	3.5	2.36	2.56	2.22	2.62	9.53
AUCCAGCUAGGUCAUCGGGUG [Fam2.2 aminoacylation ribozyme variant]	6.74	4.76	6.15	7.36	5.63	47.5
AUCCGCCUAGGUCAUCGGGUG [Fam2.2 aminoacylation ribozyme variant]	18.5	10.3	10.1	16.4	15.9	120
AUGACCCUGAUCAUCGAGUGA [Fam2.1 aminoacylation ribozyme variant]	5.85	2.73	2.84	6.06	5.56	19.5

Sequence	self-aminoacylation [1]	self-aminoacylation [2]	self-aminoacylation [3]	self-aminoacylation [4]	self-aminoacylation [5]	self-aminoacylation [6]
AUGACCCUGGCCAUCGAGUGA [Fam2.1 aminoacylation ribozyme variant]	7.68	3.03	3.66	6.4	5.04	32
AUGACCCUGGUCAUAGAGUGA [Fam2.1 aminoacylation ribozyme variant]	6.95	3.35	3.59	6.89	7.12	46.6
AUGACCCUGGUCAUCGAGCGA [Fam2.1 aminoacylation ribozyme variant]	3.09	2.2	2.31	2.48	2.99	3.71
AUGACCCUGGUCAUCGAGUGA [Fam2.1 aminoacylation ribozyme variant]	55.8	18.6	19.3	51.6	58.9	451
AUGACCCUGGUCAUCGAGUGC [Fam2.1 aminoacylation ribozyme variant]	6.92	2.61	2.96	4	7.15	17.4
AUGACCCUGGUCAUCGAGUGG [Fam2.1 aminoacylation ribozyme variant]	31	7.48	8.22	20.9	30	215
AUGACCCUGGUCAUCGGGUGA [Fam2.1 aminoacylation ribozyme variant]	99	31.9	35.1	94.9	90.6	571
AUGACCCUGGUCAUGGAGUGA [Fam2.1 aminoacylation ribozyme variant]	4.81	2.56	2.73	4.08	4.69	26.2
AUGACCCUGGUCUUCGAGUGA [Fam2.1 aminoacylation ribozyme variant]	6.24	2.9	2.95	6.19	5.04	30.4
AUGACCCUGUUCAUCGAGUGA [Fam2.1 aminoacylation ribozyme variant]	5.72	3.16	3.03	6.05	4.75	17.7
AUGAUCCUGGUCAUCGAGUGA [Fam2.1 aminoacylation ribozyme variant]	9.67	4.83	4.44	9.32	9.84	14
AUGCACCUACGUCAUCGGGUG [Fam2.2 aminoacylation ribozyme variant]	7.54	3.57	4.21	6.56	7.02	60.7
AUGCACCUAGCUCAUCGGGUG [Fam2.2 aminoacylation ribozyme variant]	2.11	1.62	2.4	2.72	1.57	3.64
AUGCACCUAGGUCAUCCGGUG [Fam2.2 aminoacylation ribozyme variant]	7.51	4.42	4.06	7.68	6.24	57.6
AUGCACCUAGGUCAUCGGAUG [Fam2.2 aminoacylation ribozyme variant]	1.11	1.26	1.23	1.25	0.919	0.614
AUGCACCUAGGUCAUCGGGGG [Fam2.2 aminoacylation ribozyme variant]	2.64	2.4	2.33	3.3	2.72	7.48
AUGCACCUAGGUCAUCGGGUA [Fam2.2 aminoacylation ribozyme variant]	12.9	6.6	5.82	9.92	10.2	42
AUGCACCUAGGUCAUCGGGUG [Fam2.2 aminoacylation ribozyme variant]	6.25	4.06	4.11	6.01	5.65	30.1
AUGCACCUAGGUCAUCUGGUG [Fam2.2 aminoacylation ribozyme variant]	2.34	1.67	1.69	2.17	1.95	10.8
AUGCACCUAGGUCAUGGGGUG [Fam2.2 aminoacylation ribozyme variant]	4.53	3.85	3.42	5.66	4.33	31.3
AUGCACCUUGGUCAUCGGGUG [Fam2.2 aminoacylation ribozyme variant]	9.83	5.37	5.41	8.29	7.63	65.4
AUGCGCCUAGGUCAUCGGGUG [Fam2.2 aminoacylation ribozyme variant]	10.7	6.21	6.24	9.8	9.32	60.9
AUGUUUGCUAAUAAUCGCAAG [Fam3.1 aminoacylation ribozyme variant]	1.06	1.38	1.35	1.04	0.97	1.34
AUGUUUGCUAAUACUCGCAAG [Fam3.1 aminoacylation ribozyme variant]	0.966	0.985	0.908	0.728	0.735	0.958
AUGUUUGCUAAUAGACGCAAG [Fam3.1 aminoacylation ribozyme variant]	0.564	0.691	0.736	0.508	0.611	0.828
